# According to paper PMC10610038, “New Insights into the Enhancement of Adventitious Root Formation Using N,N′-Bis(2,3-methylenedioxyphenyl)urea” (Plants, 2023):
# B1: ZmCKX1 (cytokinin oxidase/dehydrogenase) (Zea mays) (protein)
# chain: LAAGTPALGDDRGRPWPASLAALALDGKLRTDSNATAAASTDFGNITSALPAAVLYPSSTGDLVALLSAANSTPGWPYTIAFRGRGHSLMGQAFAPGGVVVNMASLGDAAAPPRINVSADGRYVDAGGEQVWIDVLRASLARGVAPRSWNDYLYLTVGGTLSNAGISGQAFRHGPQISNVLEMDVITGHGEMVTCSKQLNADLFDAVLGGLGQFGVITRARIAVEPAPARARWVRFVYTDFAAFSADQERLTAPRPGGGGASFGPMSYVEGSVFVNQSLATDLANTGFFTDADVARIVALAGERNATTVYSIEATLNYDNATAAAAAVDQELASVLGTLSYVEGFAFQRDVAYAAFLDRVHGEEVALNKLGLWRVPHPWLNMFVPRSRIADFDRGVFKGILQGTDIVGPLIVYPLNKSMWDDGMSAATPSEDVFYAVSLLFSSVAPNDLARLQEQNRRILRFCDLAGIQYKTYLARHTDRSDWVRHFGAAKWNRFVEMKNKYDPKRLLSPGQDIFN
# Substrate: C/C(=C\CNc1ncnc2[nH]cnc12)CO
# Experiment: purified protein
# Conditions: FAD
protein,measurement,value
B1,Km,6.8 ± 1.3 µM
